Consider 33 molecules from patent US20030003461, “Truncation selex method” (Gilead Sciences, Inc., published 2003).

Data set [1] deals with T1, MS2 coat protein (MS2 CP) (bacteriophage MS2, UniProt P03612 P03612:2-130, V75E;A81G). The data set is described as follows: filter; binds better than natural MS2 site. The conditions noted are these: chain copies: 2 (dimer, stated); hairpin.
Data set [2] deals with VEGF (VEGF165?) (Homo sapiens, UniProt P15692-4 P15692-4:27-191). The data set is described as follows: filter; phenotype 5: non-binding with or without 3' fixed sequence. The conditions noted are these: tags: R&D Systems; chain copies: 2; label: 32P body.
The target of data set [3] is T2, VEGF (Homo sapiens, UniProt P15692-4 P15692-4:27-191). The data set is described as follows: filter; phenotype 2: somewhat affected. The following applies: tags: recombinant human, R&D Systems; chain copies: 2.
Data set [4] addresses T2, VEGF. As to the kind of experiment: filter; phenotype 4: unaffected. The conditions noted are these: tags: recombinant human, R&D Systems; chain copies: 2.
Data set [5] has as its target T2, VEGF. As to the kind of experiment: filter; phenotype 3: gains significant affinity when truncated. The conditions noted are these: tags: recombinant human, R&D Systems; chain copies: 2.
The target of data set [6] is TGFβ1 (Homo sapiens, UniProt P01137 P01137:279-390). As to the kind of experiment: cell_activity; full inhibition of TGFβ1 in mink lung epithelial cell proliferation assay. The following applies: tags: recombinant human, R&D Systems; chain copies: 2. As for the experimental part: RNA was synthesized by phosphoramidite chemistry. Indicator cells (mink lung epithelial cells) were incubated with TGFβ1 and dilutions of RNA as described. The extent of cell proliferation was measured by ³H-thymidine incorporation and the data were analyzed as described. The points represent an average of n=2 and error bars are standard errors. The sequence of CD70syn and 30N7-9syn are 5′[…] (SEQ ID NO:323) and 5′[…] (SEQ ID NO:324), respectively.
The bioactivity of TGFβ1 nucleic acid ligands was measured with mink lung epithelial cells as described in U.S. patent application Ser. No. 09/046,247, filed Mar. 23, 1998. Briefly, proliferation of these cells is inhibited by TGFβ1. Human TGFβ1 was titrated on the cells and ³H-thymidine incorporation was measured. The point at which ³H-thymidine incorporation by the cells was inhibited by 90-100% was determined (typically 1-4 pM). This inhibitory amount of TGFβ1 along with varying amounts of nucleic acid ligand (typically 0.3 or 1 nM to 1 or 3 μM, in 3 fold increments) was used. Cells were plated at 1×10⁵/ml in 96-well plates in 100 μl MEM, 10 mM HEPES pH 7.5, 0.2% FBS. […] After incubation, the cells were lysed with 1% Triton X-100 and harvested onto GF/B filter plates by the Packard 96 well plate harvester, and ³H-thymidine incorporation in cellular DNA was quantitated by scintillation counting in microscint at the Packard Top-Count. […]

In data set [7] the target is T1, MS2 coat protein (MS2 CP). As to the kind of experiment: filter; tightest of the isolates; 100 mM HEPES-KOH pH 7.5, 80 mM KCl, 10 mM MgCl2, 24-25 C. The following applies: chain copies: 2 (dimer, stated); hairpin.

Where a chain is given by its changes, count along the chain named.

VEGF (VEGF165?), sequence (P15692 other isoform, or with tags, fused parts or gaps): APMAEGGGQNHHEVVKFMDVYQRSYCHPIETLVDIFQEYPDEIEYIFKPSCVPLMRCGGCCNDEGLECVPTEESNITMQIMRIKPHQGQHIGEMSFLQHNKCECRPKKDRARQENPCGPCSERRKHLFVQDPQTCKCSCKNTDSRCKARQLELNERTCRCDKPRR
T2 sequence (P15692 other isoform, or with tags, fused parts or gaps): as above
TGFβ1, sequence (P01137 279-390, one chain of several): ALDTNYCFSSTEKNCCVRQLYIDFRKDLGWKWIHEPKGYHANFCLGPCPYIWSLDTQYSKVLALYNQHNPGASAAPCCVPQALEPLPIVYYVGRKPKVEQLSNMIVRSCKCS

B1: isolate 7 (ssRNA)
RNA: GGGAAAGCCCACGCCAGUAAUUACGCCAUGAACACAGGCAUAAAGAAGUACAUAUGGUACCGAACUGCCGCACC
For the molecule B1, the binding result in data set [1] is listed as “binds”.

B2: T1-15 (ssRNA)
RNA: GGGAGGGGGGGGGAGUGAAUGCUUAUUAGAUCUGCCGUCACAGACGACUCGCCCGA
modifications: 2'-F pyrimidines
Take B2: the binding result in data set [2] is recorded as “no binding”.

B3: T2-20 (ssRNA)
RNA: GGGAGGGGAGGAAACGGAAGAAUUGGAAAACACCCGUCAGCACAGACGACUCGCCCGA
modifications: 2'-F pyrimidines
With B3, in data set [3], the binding result is listed as “binds”.

B4: pheT isolate 2 (ssRNA)
RNA: GGGAAAGCCCACGCCCUUCGCUUCAGUACCGUCGAGCAGCACCAGCGUUUCGCCACCGAACUGCCGCACC
As to B4, the binding result in data set [1] was “binds”.

B5: VEGF hyb 3a (VT30.1) (ssRNA)
RNA: GGGAGGACGAUGCGGAACUAGUGAAUGCUUAUACGACCGUGUUGUCAGACGACUCGCCCGA
modifications: 2'-F pyrimidines
Consider B5, for which the binding result in data set [3] is “binds”.

Take GGGAGCAGACGACUCGCCCGAGGAGGAGGGGGGCAGACGACUCGCCCGA (ssRNA, 2'-F pyrimidines) [T1-3]: the binding result in data set [2] was “no binding”.

B6: T1-5 (ssRNA)
RNA: GGGAGGGUGAAUGCCAACGAUUUUAUCGCCUAUCGUCACAGACGACUCGCCCGA
modifications: 2'-F pyrimidines
For the molecule B6, the binding result in data set [2] is reported as “no binding”.

B7: mreD isolate 5 (ssRNA)
RNA: GGGAAAGCCCACGCCUGAUUUGCAGCAACAGCGCAAUGAGGAAAGAGAGCCAGAUUACCCACCGAACUGCCGCACC
With B7, the binding result in data set [1] was “binds”.

B8: VT30.9 (ssRNA)
RNA: GGGAGGACGAUGCGGUCAACCGGUUGAAUAUUUGGUCGCUGACCUCAGACGACUCGCCCGA
modifications: 2'-F pyrimidines
Turning to B8, in data set [4], the binding result was “binds”.

B9: VEGF hyb 24 (ssRNA)
RNA: GGGAGGACGAUGCGGAAGGCGACUUGUAUGUGAUUCAGUAUUGGUCAGACGACUCGCCCGA
modifications: 2'-F pyrimidines
On to B9, for which the binding result in data set [3] was “binds”.

B10: VEGF hyb 2a,23 (VT30.3) (ssRNA)
RNA: GGGAGGACGAUGCGGAGAAUCAGUGAAUGCUUAUAAAUCUCGUGUCAGACGACUCGCCCGA
modifications: 2'-F pyrimidines
Take B10: in data set [4], the binding result was “binds”.

B11: VT30.3 (ssRNA)
RNA: B10 RNA
modifications: 2'-F pyrimidines
As to B11, the binding result in data set [3] was “binds”.

B12: VEGF hyb 4b (ssRNA)
RNA: GGGAGGACGAUGCGGAGACUUUGGAAGAAUUGAAUUUGUCCGUGUCAGACGACUCGCCCGA
modifications: 2'-F pyrimidines
In the case of B12, in data set [3], the binding result is given as “binds”.

B13: T1-4 (ssRNA)
RNA: GGGAGGCAGACGACUCGCCCGAGGAUACACAUCGUGUGGUCAGACGACUCGCCCGA
modifications: 2'-F pyrimidines
On to B13, for which the binding result in data set [2] is on record as “no binding”.

B14: VEGF hyb 15b,19 (ssRNA)
RNA: GGGAGGACGAUGCGGACAUGUAGGAAGAAUUGGAAGAUGCCGCGUCAGACGACUCGCCCGA
modifications: 2'-F pyrimidines
For B14, the binding result in data set [3] is “binds”.

B15: VEGF hyb 13b,21a (ssRNA)
RNA: GGGAGGACGAUGCGGUGUUGAUCGAGAUUUAAUCUAUUUCCACGUCAGACGACUCGCCCGA
modifications: 2'-F pyrimidines
As to B15, in data set [5], the binding result was “binds”.

B16: T1-13 (ssRNA)
RNA: GGGAGCAGACGACUCGCCCGACAGACCACUCGCCCGACAGACGACUCGCCCGA
modifications: 2'-F pyrimidines
B16: the binding result in data set [2] is listed as “no binding”.

The term Ki denotes the dissociation constant of the complex between target and ligand, obtained from inhibition or displacement. With GGGUGCCUUUUGCCUAGGUUGUGAUUUGUAACCUUCUGCCCA (ssRNA, 2'-F pyrimidines (inferred)) [CD70syn], the inhibitory constant (Ki) in data set [6] was around 0.0746 µM.

B17: T2-17 (ssRNA)
RNA: GGGAGAGGAGAAUCAGUGAAUGCUUAUAAAUCUCGUGUCACACAGACGACUCGCCCGA
modifications: 2'-F pyrimidines
Regarding B17, the binding result in data set [3] is listed as “binds”.

B18: T2-23 (ssRNA)
RNA: GGGAGGGACUGAAUGAAUGUUGACGGUUACGCUUUCCCCACAGACGACUCGCCCGA
modifications: 2'-F pyrimidines
B18: the binding result in data set [4] is given as “binds”.

B19: T1-1 (ssRNA)
RNA: GGGAGCGGACGACCUGGUGAAUGCCAAUAUACUUUUCGCGUCACAGACGACUCGCCCGA
modifications: 2'-F pyrimidines
For B19, the binding result in data set [2] is “no binding”.

B20: o356 isolate 3 (ssRNA)
RNA: GGGAAAGCCCACGCCAAUGUUCCACCAGCAGGGGAAAUGAUGUUGUUCUGGCUACCGAACUGCCGCACC
With B20, the binding result in data set [1] is listed as “binds”.

On to GGGAGGAAACGGAAGAAUUGGAAAACACCCGUCCAGACGACUCGCCCGA (ssRNA, 2'-F pyrimidines) [T2-7], for which the binding result in data set [3] is “binds”.

B21: rffG isolate 1 (ssRNA)
RNA: GGGAAAGCCCACGCCGGCACGCGUAUUCACUGAGCAUCAGCCAGACUGUGUACCGAACUGCCGCACC
With B21, the binding result in data set [7] is reported as “binds”.

B22: VEGF hyb 1 (ssRNA)
RNA: GGGAGGACGAUGCGGAGCUAGGUGAAUGCCGAUAUUCUCUUCCGUCAGACGACUCGCCCGA
modifications: 2'-F pyrimidines
Consider B22, for which the binding result in data set [4] was “binds”.

B23: VEGF hyb 21b (ssRNA)
RNA: B22 RNA with A16U, G17A, U35A, C39U, U40A
modifications: 2'-F pyrimidines
Consider B23, for which, in data set [5], the binding result was “binds”.

B24: T2-11 (ssRNA)
RNA: GGGAGGGACACUGGUUCCGAAGUAUUGUCUUUGUCCUCACAGCAGACGACUCGCCCGA
modifications: 2'-F pyrimidines
B24: in data set [3], the binding result was “binds”.

B25: T2-18 (ssRNA)
RNA: GGGAGUGGAAAUCAGUGAAUGCUUAUAGUUUCUCGCGUCACACAGACGACUCGCCCGA
modifications: 2'-F pyrimidines
Take B25: the binding result in data set [4] was “binds”.

B26: ygiI isolate 4 (ssRNA)
RNA: GGGAAAGCCCACGCCUAGGAGAGCGUUAACAACAGCAUCAGCGUUGAAGUGACGGAGGUACCGAACUGCCGCACC
Regarding B26, the binding result in data set [1] was “binds”.

B27: T1-2 (ssRNA)
RNA: GGGAGACCACCAGACGACUCGCCCGAACGCUUAUCCUCUGGUCAGACGACUCGCCCGA
modifications: 2'-F pyrimidines
For the molecule B27, the binding result in data set [2] is “no binding”.

B28: VEGF hyb 4a (ssRNA)
RNA: GGGAGGACGAUGCGGAAACGGAACUUCUUGGAUACAUCUGCUCGUCAGACGACUCGCCCGA
modifications: 2'-F pyrimidines
With B28, in data set [5], the binding result is on record as “binds”.

Regarding GGGAGGUCUCCAGACGACUCGCCCGA (ssRNA, 2'-F pyrimidines) [T1-16], the binding result in data set [2] was “no binding”.

B29: VEGF hyb 6 (ssRNA)
RNA: GGGAGGACGAUGCGGAUUUGGAUGCAUGUCAAGGCGUUUUGCCCUCAGACGACUCGCCCGA
modifications: 2'-F pyrimidines
As for B29, the binding result in data set [4] is given as “binds”.
